The values below come from publication PMC9352680, “A comprehensive thermodynamic model for RNA binding by the Saccharomyces cerevisiae Pumilio protein PUF4”.

What is called Kd is a measure of binding affinity in units of concentration. A higher Kd goes with lower affinity.

The target in the series is T1, PUF4 RNA-binding domain (Saccharomyces cerevisiae, UniProt P25339 537-888).
T1 sequence: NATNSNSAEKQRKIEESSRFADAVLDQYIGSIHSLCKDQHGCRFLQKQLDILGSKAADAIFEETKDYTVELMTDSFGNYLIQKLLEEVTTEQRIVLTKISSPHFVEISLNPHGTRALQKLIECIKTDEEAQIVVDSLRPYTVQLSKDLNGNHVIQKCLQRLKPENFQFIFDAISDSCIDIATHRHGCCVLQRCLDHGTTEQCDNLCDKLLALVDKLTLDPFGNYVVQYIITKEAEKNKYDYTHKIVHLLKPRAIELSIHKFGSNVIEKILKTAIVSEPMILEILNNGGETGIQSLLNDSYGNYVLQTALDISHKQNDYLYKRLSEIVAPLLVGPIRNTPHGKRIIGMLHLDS
The series is described as follows: Mg; RNA-MaP; 20 mM Na-HEPES pH 7.4, 30 mM KOAc, 0.75 mM MgCl2, 0.1% Tween-20, 5% glycerol, 0.1 mg/mL BSA, 2 mM DTT; 25 C; 0.0125-409.6 nM protein. To be noted: tags: N-His6-TEV cleaved; C-SNAP kept, Cy3B-labelled; label: tethered on chip by stalled RNA polymerase.

Positions count from the first letter of the chain named. Names may count otherwise.

B1: Ic_S4_P5E.1_K5.1_C5.1_H5.1_A5.1_[T5G]_[T6C]_[A7G]_F5.1_[T9A]_T5.1 (ssRNA)
RNA: UUUGACAACUGAUCGUUCUUUCUUGUAGCGUAAUUCUUUCUCGAUCAGUUGUCUUU
B1: binding was characterised by a dissociation constant (Kd) of 25.3 nM.

B2: Ic_S4_P5E.1_K5.1_C5.1_H5.1_A5.1_[T5A]_[A7C]_F5.1_[T8C]_[T9G]_[A10C]_T5.1 (ssRNA)
RNA: B1 RNA with G28A, C29U, G30C, U31C, A32G, A33C
As for B2, the affinity, expressed as Kd, was 946 nM.

B3: Ic_S4_P5E.1_K5.1_C5.1_H5.1_A5.1_[T6C]_[A7T]_F5.1_[T8C]_[A10G]_T5.1 (ssRNA)
RNA: B1 RNA with G28U, G30U, U31C, A32U, A33G
As for B3, the Kd came to 19.1 nM.

B4: Ic_S4_P5E.1_K5.1_C5.1_H5.1_A5.1_[T5C]_[A7C]_F5.1_[T8A]_[T9C]_[A10G]_T5.1 (ssRNA)
RNA: B1 RNA with G28C, C29U, G30C, U31A, A32C, A33G
In the case of B4, the dissociation constant (Kd) was greater than 2300 nM.

B5: Ic_S4_P5E.1_K5.1_C5.1_H5.1_A5.1_[T5G]_[T6C]_F5.1_[T9A]_[A10C]_T5.1 (ssRNA)
RNA: B1 RNA with G30A, A33C
The molecule B5 gave a Kd of 6.93 nM.

B6: Ic_S4_P5E.1_K5.1_C5.1_H5.1_A5.1_[T6C]_[A7T]_F5.1_[T9C]_[A10C]_T5.1 (ssRNA)
RNA: B1 RNA with G28U, G30U, A32C, A33C
B6 registered a Kd of 17.2 nM.

B7: Ic_S4_P5E.1_K5.1_C5.1_H5.1_A5.1_[T6G]_[A7T]_F5.1_[T8G]_[T9C]_[A10C]_T5.1 (ssRNA)
RNA: B1 RNA with G28U, C29G, G30U, U31G, A32C, A33C
For B7, the Kd turned out to be 67.2 nM.

B8: Ic_S4_P5E.1_K5.1_C5.1_H5.1_A5.1_[T5C]_[T6C]_[A7T]_F5.1_[T9A]_[A10G]_T5.1 (ssRNA)
RNA: B1 RNA with G28C, G30U, A33G
B8 yielded a dissociation constant (Kd) of 3.61 nM.

B9: Ic_S4_P5E.1_K5.1_C5.1_H5.1_A5.1_[A7T]_F5.1_[T9C]_[A10T]_T5.1 (ssRNA)
RNA: B1 RNA with G28U, C29U, G30U, A32C, A33U
B9 returned a Kd of 15.6 nM.

B10: Ic_S4_P5E.1_K5.1_C5.1_H5.1_A5.1_[T5C]_[T6A]_[A7T]_F5.1_[T8A]_[T9G]_[A10T]_T5.1 (ssRNA)
RNA: B1 RNA with G28C, C29A, G30U, U31A, A32G, A33U
B10 displayed a Kd of 5 nM.

B11: Ic_S4_P5E.1_K5.1_C5.1_H5.1_A5.1_[T6C]_[A7G]_F5.1_[T8C]_[T9C]_T5.1 (ssRNA)
RNA: B1 RNA with G28U, U31C, A32C
In turn, B11 registered a Kd of 850 nM.

B12: Ic_S4_P5E.1_K5.1_C5.1_H5.1_A5.1_[T5C]_[T6A]_F5.1_[T8A]_[T9C]_[A10T]_T5.1 (ssRNA)
RNA: B1 RNA with G28C, C29A, G30A, U31A, A32C, A33U
For the molecule B12, binding was characterised by a dissociation constant (Kd) of 80.6 nM.

B13: Ic_S4_P5E.1_K5.1_C5.1_H5.1_A5.1_[T5C]_[A7C]_F5.1_[A10T]_T5.1 (ssRNA)
RNA: B1 RNA with G28C, C29U, G30C, A32U, A33U
B13: the Kd was 10.9 nM.

B14: Ic_S4_P5E.1_K5.1_C5.1_H5.1_A5.1_[T5G]_[T6C]_F5.1_[T8C]_[A10T]_T5.1 (ssRNA)
RNA: B1 RNA with G30A, U31C, A32U, A33U
B14 showed a Kd of 172 nM.

B15: Ic_S4_P5E.1_K5.1_C5.1_H5.1_A5.1_[T5A]_F5.1_[T8A]_[T9C]_[A10T]_T5.1 (ssRNA)
RNA: B1 RNA with G28A, C29U, G30A, U31A, A32C, A33U
B15 showed a Kd of 561 nM.

B16: Ic_S4_P5E.1_K5.1_C5.1_H5.1_A5.1_F5.1_[T8C]_[T9C]_[A10T]_T5.1 (ssRNA)
RNA: B1 RNA with G28U, C29U, G30A, U31C, A32C, A33U
The molecule B16 returned a Kd of 160 nM.

B17: Ic_S4_P5E.1_K5.1_C5.1_H5.1_A5.1_[T5C]_[T6C]_F5.1_[T8C]_[T9A]_[A10T]_T5.1 (ssRNA)
RNA: B1 RNA with G28C, G30A, U31C, A33U
Molecule B17 came in with a Kd of 158 nM.

B18: Ic_S4_P5E.1_K5.1_C5.1_H5.1_A5.1_[A7C]_F5.1_[T8G]_[A10T]_T5.1 (ssRNA)
RNA: B1 RNA with G28U, C29U, G30C, U31G, A32U, A33U
On to B18, for which the Kd is 59.5 nM.

B19: Ic_S4_P5E.1_K5.1_C5.1_H5.1_A5.1_[T5G]_[T6C]_[A7T]_F5.1_[T8C]_[T9G]_[A10T]_T5.1 (ssRNA)
RNA: B1 RNA with G30U, U31C, A32G, A33U
Molecule B19 registered a Kd of 476 nM.

B20: Ic_S4_P5E.1_K5.1_C5.1_H5.1_A5.1_[T5C]_[T6C]_[A7T]_F5.1_[T8A]_[T9G]_[A10C]_T5.1 (ssRNA)
RNA: B1 RNA with G28C, G30U, U31A, A32G, A33C
B20 registered an equilibrium dissociation constant (Kd) of 74.3 nM.

B21: Ic_S4_P5E.1_K5.1_C5.1_H5.1_A5.1_[T6A]_[A7T]_F5.1_[T9C]_[A10C]_T5.1 (ssRNA)
RNA: B1 RNA with G28U, C29A, G30U, A32C, A33C
As for B21, the Kd worked out at 3.74 nM.

B22: Ic_S4_P5E.1_K5.1_C5.1_H5.1_A5.1_[T5C]_[T6A]_[A7C]_F5.1_[T8A]_[A10G]_T5.1 (ssRNA)
RNA: B1 RNA with G28C, C29A, G30C, U31A, A32U, A33G
B22: the Kd is 130 nM.

B23: Ic_S4_P5E.1_K5.1_C5.1_H5.1_A5.1_[T5C]_[A7G]_F5.1_[T8G]_T5.1 (ssRNA)
RNA: B1 RNA with G28C, C29U, U31G, A32U
As for B23, the affinity, expressed as Kd, was 34 nM.

B24: Ic_S4_P5E.1_K5.1_C5.1_H5.1_A5.1_[T5A]_[T6C]_F5.1_[T8G]_[T9C]_[A10T]_T5.1 (ssRNA)
RNA: B1 RNA with G28A, G30A, U31G, A32C, A33U
B24: binding was characterised by a dissociation constant (Kd) of 662 nM.

B25: Ic_S4_P5E.1_K5.1_C5.1_H5.1_A5.1_[T6G]_[A7T]_F5.1_[T8C]_[T9C]_[A10C]_T5.1 (ssRNA)
RNA: B1 RNA with G28U, C29G, G30U, U31C, A32C, A33C
The molecule B25 had a Kd of 66.1 nM.

B26: Ib_S1_P4E.1_K4.1_C4.1_H4.1_A4.1_[A6T]_F4.1_[A9T]_T4.1 (ssRNA)
RNA: UCUCUUUGUAUUUUUUCUCUU
The molecule B26 registered a Kd of 20.9 nM.

B27: Ib_S1_P4E.1_K4.1_C4.1_H4.1_A4.1_[T7C]_F4.1_[A9G]_T4.1 (ssRNA)
RNA: UCUCUUUGUAUACUGUCUCUU
The molecule B27 had a Kd of 5.39 nM.
